From the supplement of paper PMC12764529
± gives the half width of the 95% confidence interval.

How the values were obtained:
[1] = folding stability dG unfold from trypsin proteolysis; higher = more stable
Outline: (§1)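 Digests were run with trypsin and chymotrypsin at 11 concentrations in threefold dilutions, plus a no-protease condition, on designed mini-proteins in a PA-tagged cDNA display construct. The mini-proteins were under 80 residues, had no cysteine, and were kept only when AlphaFold2 dimer inter-PAE was above 15. After sequencing, Bayesian fitting of the counts gave K50, from which unfolding free energy was derived against a sequence-predicted unfolded-state K50 and a shared folded-state K50, per protease or combined.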

[2] = folding stability dG unfold (combined trypsin and chymotrypsin); higher = more stable
Outline: as §1

[3] = folding stability dG unfold from chymotrypsin proteolysis; higher = more stable
Outline: as §1

Sequence	folding stability dG unfold [1] [kcal/mol]	folding stability dG unfold [2] [kcal/mol]	folding stability dG unfold [3] [kcal/mol]
SAGGSAKPNEKVKIRIINEDGEEIEIEVEVKPGEKIYLLENGEEVEVKPGEKIEFPPGAKILVEKVSAGGSA [r15_152_TrROS_Hall]	1.11 ± 0.034	1.1 ± 0.12	1.07 ± 0.02
SAGGSAKPVKVDTLVLTAPFESKEEAEKAVEEFAKAVAEKLPKDVKVEVEVKYDPETKTFTAVVKASAGGSA [r15_981_TrMRF]	2.23 ± 0.093	2.34 ± 0.051	2.368 ± 0.018
SAGGSAKRVITIGNDEDQERVQEEAEDNGVKKRPIPGDWDDFLSNLQDNFPEIDRIVIPNGREFEISAGGSA [r15_712_TrROS]	-0.659 ± 0.32	-0.953 ± 0.44	-1.27 ± 0.32
SAGGSAKRVIVIGSKEERERAREAAEKENLEVVEIEGPVEEALAKLKELFPEIDEIVIVLPEEEEESAGGSA [r15_712_TrROS_Hall]	0.68 ± 0.14	0.899 ± 0.19	0.768 ± 0.14
SAGGSAKSLTLTVEITLPDGSTVRIEAEIEEKDGYLVIKVTIYNEDGEKVAEFTLVLKLPPPPPEPSAGGSA [r15_263_TrROS_Hall]	2.84 ± 0.47	3.76 ± 0.66	4.42 ± 0.2
SAGGSAKTIEITLEDGSKVTITEVKDGYIRIYVSEEAKEALKKLGLEEVDEENNVITLPLEKLKKLSAGGSA [r15_984_TrROS_Hall]	1.22 ± 0.052	1.62 ± 0.1	1.86 ± 0.045
SAGGSAKTITIEVKVEKTKDGKIKKGEIVKVEIEVDEKTKKVKIKIYNKNGELIAEIEIELSPEDLSAGGSA [r15_134_TrROS_Hall]	1.34 ± 0.21	2.81 ± 0.39	2.95 ± 0.16
SAGGSAKVKIIVTYNDGKKEEIIFDIPENYEISEVEKIAKKIAKNIAKKKNLPNVNIKVEKIEPLESAGGSA [r15_463_TrMRF]	2.41 ± 0.047	3.09 ± 0.074	3.39 ± 0.06
SAGGSAKWVLVRIELEKGGKPLEFYQRVKAKEPELDIKIPPGIEEEGFKILRIEVEEISPEELEKESAGGSA [r15_853_TrMRF]	0.864 ± 0.04	1.18 ± 0.15	1.32 ± 0.18
SAGGSALDPGKPVRVTVNLRVYRPLPDGTVKTFPSATVDLPVEEVLDLAKALPKEYTVTVDSIVVDSAGGSA [r15_833_TrMRF]	0.249 ± 0.14	0.513 ± 0.18	0.663 ± 0.17
SAGGSALEVKPGAGNTLTVYTPLPEDIPISEVIEELKKKYPNITAETDETSDGVAVVTLTLPPGLGSAGGSA [r15_1047_JUSTAS]	0.984 ± 0.051	0.724 ± 0.12	0.401 ± 0.25
SAGGSALKDFPLEEVEKVILVDLPDGKPALLVLLKGPPVVVLYPLESGKPIFIDAPLEEVLEFLLSSAGGSA [r15_810_TrMRF]	2.68 ± 0.05	2.83 ± 0.044	2.892 ± 0.014
SAGGSALKIHPDEKVLVKLKNTKKPVEAKVVKVEKLPNNKWVFYVEVKLNGKKVKIPVDGKDVVVASAGGSA [r15_62_TrMRF]	2.55 ± 0.2	2.45 ± 0.23	2.38 ± 0.07
SAGGSALKNSTLRITVERGNVPFTVEVKLKSVVVDLESGKVDVELPEEFKKLFKGPVKILSLEIPDSAGGSA [r15_710_TrMRF]	0.884 ± 0.057	1.53 ± 0.17	1.82 ± 0.11
SAGGSALLEALKKLAEELGLEVELEEVRVETETRTETRTLPDGRTETRTETEVRVEVKVTVRPKPASAGGSA [r15_561_TrROS_Hall]	2.59 ± 0.075	2.71 ± 0.082	2.72 ± 0.1
SAGGSALPIETPSDGVVPYTDPVTGKTYTVTFRRDEGKTSFRVEEPESSATREVTEPVSVTEAVLTSAGGSA [r15_234_JUSTAS]	-0.219 ± 0.12	0.000309 ± 0.084	0.069 ± 0.13
SAGGSALPPDAPFTVEREVPFTLPDGALVTLYYNPETGTVLVRFYPPDGGEVRVEAKAEEALALLSSAGGSA [r15_2_TrMRF]	1.17 ± 0.019	1.31 ± 0.039	1.34 ± 0.06
SAGGSAMAIVEYDPDNRVRAIVYFPGEKRVALVEVDDDTATVTAVYDLSDDGVATYLDEATFEIGGSAGGSA [r2_60_TrMRF]	0.896 ± 0.048	0.922 ± 0.046	0.87 ± 0.043

Sequence	folding stability dG unfold [1] [kcal/mol]	folding stability dG unfold [2] [kcal/mol]	folding stability dG unfold [3] [kcal/mol]
SAGGSAMEELKEKVLEAWKKLTPDTPVTIKEINPEKKEITIETTSEEAKEKLKKAAKEMGIKIKIKSAGGSA [r15_196_JUSTAS]	0.71 ± 0.27	0.63 ± 0.39	1.28 ± 0.33
SAGGSAMEIEVTLTDPALLEALIAELPYPVEVSEDPTDPSVTRVTLRTETSAEEVREAVARALGLESAGGSA [r15_118_JUSTAS]	0.732 ± 0.037	1.07 ± 0.081	1.27 ± 0.06
SAGGSAMEIVAVEKGDNTVTLLLRDPETGELYTATFHFIPGSKTVHATVTFPDGSTATFTFDATALSAGGSA [r15_1055_TrMRF]	2.82 ± 0.09	4.01 ± 0.12	4.32 ± 0.068
SAGGSAMERVTITLPDGRELTIERFPEEPNRFVLTFPDGRRLEFEFESPEEGLRAALELVLAGKEGSAGGSA [r15_38_TrMRF]	3.34 ± 0.075	3.91 ± 0.06	4.13 ± 0.042
SAGGSAMFMFELTIPPNAKIPPGYKLKIRFPNGKEEEYKFNNGPIKIWFYMDPDGNIQLDLEVEKKSAGGSA [r15_992_TrROS]	2.97 ± 0.09	4.35 ± 0.15	4.9 ± 0.14
SAGGSAMIEVKIEVPDDASEEEKAELAEKIKKEIKASGVEPTENGIPVKKSLENVEVKVTFLKKKKSAGGSA [r15_717_JUSTAS]	-0.469 ± 0.2	-0.196 ± 0.38	0.074 ± 0.33
SAGGSAMITLEDIKALGPDNPIRTFPETGLVFVERPGELTLYKFDPKTNTVTKLKTFNSPEEKEKLSAGGSA [r15_6_JUSTAS]	0.405 ± 0.035	0.863 ± 0.069	1.15 ± 0.083
SAGGSAMKEGKPAVEVEVTVLIELSAEEIAKLLGKEIKEGDTVLITVKVRVYPDGSVEIEIRVEKLSAGGSA [r15_91_TrROS_Hall]	2.87 ± 0.15	3.08 ± 0.17	3.19 ± 0.17
SAGGSAMKEITIEVDGKTVRVKVYFKDTGKVVERTFPKGTSVEELAKELEEEFGKDVEIVEVEEVPSAGGSA [r15_544_TrROS_Hall]	2.43 ± 0.11	3.24 ± 0.15	3.57 ± 0.11
SAGGSAMKIELENAKILDIKPTPDGKKVIFIELPSGKIIAVYEDNKVAVRSKKDPSVKPEDADPVFSAGGSA [r15_692_TrMRF]	0.374 ± 0.07	0.892 ± 0.11	1.17 ± 0.046
SAGGSAMKITYKPPSGETTVHPIPPGLTPEERRALAEELAKALQEKTGDPNVTVEFDPATGEITVASAGGSA [r15_33_JUSTAS]	1.33 ± 0.034	0.84 ± 0.11	-0.0618 ± 0.15
SAGGSAMKIVEKKTVTLTLPDGREVTVTLTKVEVDGETYYVLTVTDKDTGKTYTFVFKPGQSLEDLSAGGSA [r15_75_TrROS_Hall]	3.17 ± 0.092	4.39 ± 0.2	4.67 ± 0.083
SAGGSAMKLKLTFVADSPEQAEQLAEEYTRLNPELFPGEKDYPLEIEVYVLVAPPLVPPSPEELAGSAGGSA [r15_663_TrMRF]	1.23 ± 0.051	1.69 ± 0.27	2.12 ± 0.27
SAGGSAMKLTAETTDPGSDRFEATIYDPSDSGGDSVVSFESEEELEAFIKNLPSSVASVSLVPTSPSAGGSA [r15_589_JUSTAS]	0.983 ± 0.017	0.728 ± 0.033	0.378 ± 0.035
SAGGSAMKPDDYVVIKIEIENMSEEEIAKKLADELKKLFPDVEVKVTVEKEEDGRYRVTIEVVLKKSAGGSA [r15_916_TrROS_Hall]	1.83 ± 0.056	2.83 ± 0.26	3.34 ± 0.15
SAGGSAMKPGQKLLVKNKKTNKIYEITFDKDTGKVYIHNKKTGKTYEFDSLEDALKKMGFEPVKVESAGGSA [r15_500_TrROS_Hall]	1.43 ± 0.078	2.28 ± 0.16	2.45 ± 0.08
SAGGSAMKVEIVLKVPGDEMLDIEVDEEFPVVDQTIDKETGIVTVLLEGDPEKAEEIAKEIAEKLGSAGGSA [r15_662_TrMRF]	0.6 ± 0.069	0.511 ± 0.1	0.299 ± 0.044
